Laboratory results: patent US20210070876A1

T1: His-tagged human CD73 ECD (human) (UniProt P21589)
T1 sequence: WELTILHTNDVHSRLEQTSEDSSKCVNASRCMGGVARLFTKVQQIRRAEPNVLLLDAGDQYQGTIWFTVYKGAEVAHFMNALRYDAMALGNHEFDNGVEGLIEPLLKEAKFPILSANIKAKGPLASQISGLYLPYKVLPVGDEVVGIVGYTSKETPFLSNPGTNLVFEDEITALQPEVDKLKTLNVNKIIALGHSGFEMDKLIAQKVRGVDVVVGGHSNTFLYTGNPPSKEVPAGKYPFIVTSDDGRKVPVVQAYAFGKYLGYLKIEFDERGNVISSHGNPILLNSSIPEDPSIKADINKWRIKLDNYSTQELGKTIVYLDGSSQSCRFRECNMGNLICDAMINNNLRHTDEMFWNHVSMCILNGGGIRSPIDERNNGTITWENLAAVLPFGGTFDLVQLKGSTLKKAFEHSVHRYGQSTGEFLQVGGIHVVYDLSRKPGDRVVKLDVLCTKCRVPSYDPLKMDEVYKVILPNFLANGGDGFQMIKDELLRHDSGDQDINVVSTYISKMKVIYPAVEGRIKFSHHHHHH

T2: human CD73 ECD fused C-terminally to human IgG1 Fc (human) (UniProt P21589)
T2 sequence: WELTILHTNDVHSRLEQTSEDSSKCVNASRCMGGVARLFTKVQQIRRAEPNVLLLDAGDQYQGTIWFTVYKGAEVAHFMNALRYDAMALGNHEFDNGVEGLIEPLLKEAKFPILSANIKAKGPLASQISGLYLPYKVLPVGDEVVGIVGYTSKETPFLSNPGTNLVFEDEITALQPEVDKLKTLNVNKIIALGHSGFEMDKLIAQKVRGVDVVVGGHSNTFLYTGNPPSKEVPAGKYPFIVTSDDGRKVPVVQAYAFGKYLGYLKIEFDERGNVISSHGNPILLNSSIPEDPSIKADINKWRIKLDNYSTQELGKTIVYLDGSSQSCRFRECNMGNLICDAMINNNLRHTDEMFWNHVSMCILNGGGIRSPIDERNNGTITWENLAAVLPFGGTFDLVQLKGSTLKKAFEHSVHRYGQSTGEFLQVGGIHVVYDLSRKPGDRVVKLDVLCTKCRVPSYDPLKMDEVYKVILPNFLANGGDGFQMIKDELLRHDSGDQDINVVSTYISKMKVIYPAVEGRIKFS


How the values were obtained:
[1] = molecular target: T1, His-tagged human CD73 ECD (human); assay: SEC-MALS, mAb:CD73 1:1
[2] = molecular target: T1, His-tagged human CD73 ECD (human); assay: SEC-MALS, mAb:CD73 0.1:1
[3] = molecular target: T1, His-tagged human CD73 ECD (human); assay: SEC-MALS, mAb:CD73 0.5:1
[4] = molecular target: His-tagged cynomolgus CD73 ECD (cynomolgus monkey (Macaca fascicularis)); assay: SPR, mAb captured, His-tagged CD73 ECD injected
[5] = molecular target: T1, His-tagged human CD73 ECD (human); assay: SPR, mAb captured, His-tagged CD73 ECD injected
[6] = molecular target: cynomolgus CD73 ECD fused C-terminally to human IgG1 Fc (cynomolgus monkey (Macaca fascicularis); human); assay: SPR, Fc-tagged CD73 ECD captured, Fab injected
[7] = molecular target: T2, human CD73 ECD fused C-terminally to human IgG1 Fc (human); assay: SPR, Fc-tagged CD73 ECD captured, Fab injected
[8] = molecular target: human CD73 expressed on cells (human) (UniProt P21589); assay: cell-based or functional assay; settings: scale: % viable cells compared to untreated cells

Binder	molecular mass of complex, Peak 2 (MW, kDa) [1] [kDa]	molecular mass of complex, Peak 3 (MW, kDa) [1] [kDa]	molecular mass of complex, Peak 4 (MW, kDa) [1] [kDa]	molecular mass of complex, Peak 2 (MW, kDa) [2] [kDa]	molecular mass of complex, Peak 3 (MW, kDa) [2] [kDa]	molecular mass of complex, Peak 4 (MW, kDa) [2] [kDa]	molecular mass of complex, Peak 2 (MW, kDa) [3] [kDa]	molecular mass of complex, Peak 3 (MW, kDa) [3] [kDa]	molecular mass of complex, Peak 4 (MW, kDa) [3] [kDa]	Kd [4] [nM]	koff [4] [s⁻¹]	kon [4] [M⁻¹ s⁻¹]	Kd [5] [nM]	koff [5] [s⁻¹]	kon [5] [M⁻¹ s⁻¹]	Kd [6] [nM]	koff [6] [s⁻¹]	kon [6] [M⁻¹ s⁻¹]	Kd [7] [nM]	koff [7] [s⁻¹]	other results
11E1 analogue (Innate Pharma) (antibody, from another filing, IgG1, V domains shown) VH: EIQLQQSGPELVKPGASVKVSCKASGYAFTSYNMYWVKQSHGKSLEWIGYIDPYNGGTSYNQKFKGKATLTVDKSSSTAYMHLNSLTSEDSAVYYCARGYGNYKAWFAYWGQGTLVTVSA VL: DAVMTQTPKFLLVSAGDRVTITCKASQSVTNDVAWYQQKPGQSPKLLIYYASNRYTGVPDRFTGSGYGTDFTFTISTVQAEDLAVYFCQQDYSSLTFGAGTKLELK	270	511	802	265	704	11800	277	566	3370	0.14	1.3e-05	84000	0.1	5.6e-06	57000						
11E1 analogue Fab fragment (Fab, from another filing, V domains shown) VH: EIQLQQSGPELVKPGASVKVSCKASGYAFTSYNMYWVKQSHGKSLEWIGYIDPYNGGTSYNQKFKGKATLTVDKSSSTAYMHLNSLTSEDSAVYYCARGYGNYKAWFAYWGQGTLVTVSA VL: DAVMTQTPKFLLVSAGDRVTITCKASQSVTNDVAWYQQKPGQSPKLLIYYASNRYTGVPDRFTGSGYGTDFTFTISTVQAEDLAVYFCQQDYSSLTFGAGTKLELK																8.7	0.0028	320000	9.8	0.0028	kon [7]: 290000 M⁻¹ s⁻¹
CPX006 analogue (Corvus) (antibody, from another filing, IgG1, V domains shown) VH: QVQLVQSGAEVEKPGASVKVSCKASGYTFTSYWITWVRQAPGQGLEWMGDIYPGSGNTNYNEKFKTRVTITADKSTSTAYMELSSLRSEDTAVYYCAKEGGLTTEDYALDYWGQGTLVTVSS VL: EIVLTQSPATLSLSPGERATLSCRASKNVSTSGYSYMHWYQQKPGQAPRLLIYLASNLESGIPPRFSGSGYGTDFTLTINNIESEDAAYYFCQHSRELPFTFGQGTKVEIKR	148	246	363	121	236	339	143	245	349	0.33	1.4e-05	28000	0.02	2.4e-06	170000						
CPX006 analogue Fab fragment (Fab, from another filing, V domains shown) VH: QVQLVQSGAEVEKPGASVKVSCKASGYTFTSYWITWVRQAPGQGLEWMGDIYPGSGNTNYNEKFKTRVTITADKSTSTAYMELSSLRSEDTAVYYCAKEGGLTTEDYALDYWGQGTLVTVSS VL: EIVLTQSPATLSLSPGERATLSCRASKNVSTSGYSYMHWYQQKPGQAPRLLIYLASNLESGIPPRFSGSGYGTDFTLTINNIESEDAAYYFCQHSRELPFTFGQGTKVEIKR																71.6	0.00048	6700	80.3	0.00053	kon [7]: 6600 M⁻¹ s⁻¹

Now from value to binder, other results behind:

molecular mass of complex, Peak 2 (MW, kDa) [1] [kDa]	molecular mass of complex, Peak 3 (MW, kDa) [1] [kDa]	molecular mass of complex, Peak 4 (MW, kDa) [1] [kDa]	molecular mass of complex, Peak 2 (MW, kDa) [2] [kDa]	molecular mass of complex, Peak 3 (MW, kDa) [2] [kDa]	molecular mass of complex, Peak 4 (MW, kDa) [2] [kDa]	molecular mass of complex, Peak 2 (MW, kDa) [3] [kDa]	molecular mass of complex, Peak 3 (MW, kDa) [3] [kDa]	molecular mass of complex, Peak 4 (MW, kDa) [3] [kDa]	Kd [4] [nM]	koff [4] [s⁻¹]	kon [4] [M⁻¹ s⁻¹]	Kd [5] [nM]	koff [5] [s⁻¹]	kon [5] [M⁻¹ s⁻¹]	Kd [6] [nM]	koff [6] [s⁻¹]	kon [6] [M⁻¹ s⁻¹]	Kd [7] [nM]	koff [7] [s⁻¹]	Binder	other results
389	682	1040	194	432	821	870	559	1010	0.06	6.6e-06	140000	0.02	2.5e-06	110000						oleclumab analogue (MEDI9447, Medimmune) (antibody, INN chains, looked up, V domains shown, IgG1-TM) VH: EVQLLESGGGLVQPGGSLRLSCAASGFTFSSYAYSWVRQAPGKGLEWVSAISGSGGRTYYADSVKGRFTISRDNSKNTLYLQMNSLRAEDTAVYYCARLGYGRVDEWGRGTLVTVSS VL: QSVLTQPPSASGTPGQRVTISCSGSLSNIGRNPVNWYQQLPGTAPKLLIYLDNLRLSGVPDRFSGSKSGTSASLAISGLQSEDEADYYCATWDDSHPGWTFGGGTKLTVL	viable MDA-MB-468 cells in the presence of 300 µM AMP (WST-1) [8]: 70 to 80
															0.07	4.3e-05	580000	0.06	3.4e-05	oleclumab analogue Fab fragment (Fab, INN chains, looked up, V domains shown, Fab) VH: EVQLLESGGGLVQPGGSLRLSCAASGFTFSSYAYSWVRQAPGKGLEWVSAISGSGGRTYYADSVKGRFTISRDNSKNTLYLQMNSLRAEDTAVYYCARLGYGRVDEWGRGTLVTVSS VL: QSVLTQPPSASGTPGQRVTISCSGSLSNIGRNPVNWYQQLPGTAPKLLIYLDNLRLSGVPDRFSGSKSGTSASLAISGLQSEDEADYYCATWDDSHPGWTFGGGTKLTVL	kon [7]: 560000 M⁻¹ s⁻¹
